Data published in patent publication US12269859B2, “Synthetic immune receptors and methods of use thereof” (Angeles Therapeutics, Inc., priority 2016, dated 2025).

System: target antigen-expressing cell line
Test: Jurkat NFAT-GFP assay, coculture with target cell lines expressing the respective target antigen (summary Table 10A)
Assay type: cell-based, human
Set-up: key: The signs +/−, +, 2+ etc. after the name of the cell lines indicate the relative degree of positivity on the Jurkat-NFAT-GFP assay as measured by the % GFP positive cells; +: relative degree of positivity on the Jurkat-NFAT-GFP assay as measured by the % GFP positive cells; 2+: relative degree of positivity on the Jurkat-NFAT-GFP assay as measured by the % GFP positive cells
In short: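 Coculture of SIR-bearing Jurkat NFAT-GFP reporters with target cells, ~1:2 E:T, ~4–18 h. FACS quantified % GFP+ cells, ranked semi-quantitatively against parental Jurkat-NFAT-GFP.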

Molecule	NFAT-GFP ASSAY Positive Cell lines (coculture with L363 cells)	NFAT-GFP ASSAY Positive Cell lines (coculture with U266 cells)	NFAT-GFP ASSAY Positive Cell lines (coculture with HL60 cells)	NFAT-GFP ASSAY Positive Cell lines (coculture with RAJI cells)
060616-K04 (protein, Synthetic Immune Receptor (SIR)) MALPVTALLLPLALLLHAARPDIQMTQSPSSLSASVGDRVTITCKASQDVGIAVAWYQQKPGKVPKLLIYWASTRHTGVPDRFSGSGSGTDFTLTISSLQPEDVATYYCQQYSSYPYTFGQGTKVEIKLEGKPIPNPLLGLDSTGSGEDLKNVFPPEVAVFEPSKAEIAHTQKATLVCLATGFYPDHVELSWWVNGKEVHSGVCTDPQPLKEQPALNDSRYCLSSRLRVSATFWQNPRNHFRCQVQFYGLSENDEWTQDRAKPVTQIVSAEAWGRADCGITSASYHQGVLSATILYEILLGKATLYAVLVSALVLMAMVKRKDSRGRAKRSGSGATNFSLLKQAGDVEENPGPTSMDWIWRILFLVGAATGAHSFEEVQLVESGGGLVQPGGSLRLSCAASGFDFSRYWMSWVRQAPGKGLEWIGEINPDSSTINYAPSLKDKFIISRDNAKNSLYLQMNSLRAEDTAVYYCARPDGNYWYFDVWGQGTLVTVSSTREQKLISEEDGSGIQNPDPAVYQLRDSKSSDKSVCLFTDFDSQTNVSQSKDSDVYITDKCVLDMRSMDFKSNSAVAWSNKSDFACANAFNNSIIPEDTFFPSSDVPCDVKLVEKSFETDTNLNFQNLSVIGFRILLLKVAGFNLLMTLRLWSSRAKRSGSGVKQTLNFDLLKLAGDVESNPGPSRGHMTEYKPTVRLATRDDVPRAVRTLAAAFADYPATRHTVDPDRHIERVTELQELFLTRVGLDIGKVWVADDGAAVAVWTTPESVEAGAVFAEIGPRMAELSGSRLAAQQQMEGLLAPHRPKEPAWFLATVGVSPDHQGKGLGSAVVLPGVEAAERAGVPAFLETSAPRNLPFYERLGFTVTADVEVPEGPRTWCMTRKPGA	L363 (2+)	–	–	–
041416-P02 (protein, Polynucleotide encoding a Synthetic Immune Receptor (SIR)) MALPVTALLLPLALLLHAARPDIVMTQSQKSMSTSVGDRVSITCKASQDVITGVAWYQQKPGQSPKLLIYSASYRYTGVPDRFTGSGSGTDFTFTISNVQAEDLAVYYCQQHYSTPLTFGAGTKLELKLEGKPIPNPLLGLDSTGSGEDLKNVFPPEVAVFEPSKAEIAHTQKATLVCLATGFYPDHVELSWWVNGKEVHSGVCTDPQPLKEQPALNDSRYCLSSRLRVSATFWQNPRNHFRCQVQFYGLSENDEWTQDRAKPVTQIVSAEAWGRADCGITSASYHQGVLSATILYEILLGKATLYAVLVSALVLMAMVKRKDSRGRAKRSGSGATNFSLLKQAGDVEENPGPTSMDWIWRILFLVGAATGAHSFEQVQLQQPGAELVRPGASVKLSCKASGYSFTTYWMNWVKQRPGQGLEWIGMIHPSDSETRLNQKFKDKATLTVDKSSSTAYMQLSSPTSEDSAVYYCARSTMIATRAMDYWGQGTSVTVSSTREQKLISEEDGSGTPFPSLAPPIMLLVDGKQQMVVVCLVLDVAPPGLDSPIWFSAGNGSALDAFTYGPSPATDGTWTNLAHLSLPSEELASWEPLVCHTGPGAEGHSRSTQPMHLSGEASTARTCPQEPLRGTPGGALWLGVLRLLLFKLLLFDLLLTCSCLCDPAGPLPSPATTTRLRALGSHRLHPATETGGREATSSPRPQPRDRRWGDTPPGRKPGSPVRAKRSGSGVKQTLNFDLLKLAGDVESNPGPSRGHMTEYKPTVRLATRDDVPRAVRTLAAAFADYPATRHTVDPDRHIERVTELQELFLTRVGLDIGKVWVADDGAAVAVWTTPESVEAGAVFAEIGPRMAELSGSRLAAQQQMEGLLAPHRPKEPAWFLATVGVSPDHQGKGLGSAVVLPGVEAAERAGVPAFLETSAPRNLPFYERLGFTVTADVEVPEGPRTWCMTRKPGA	(+/−)	U266 (+/−), L363	–	–
092216-G01 (protein, Synthetic Immune Receptor (SIR)) MALPVTALLLPLALLLHAARPLEGKPIPNPLLGLDSTGSGEDLKNVFPPEVAVFEPSKAEIAHTQKATLVCLATGFYPDHVELSWWVNGKEVHSGVCTDPQPLKEQPALNDSRYCLSSRLRVSATFWQNPRNHFRCQVQFYGLSENDEWTQDRAKPVTQIVSAEAWGRADCGITSASYHQGVLSATILYEILLGKATLYAVLVSALVLMAMVKRKDSRGRAKRSGSGATNFSLLKQAGDVEENPGPTSTMALPVTALLLPLALLLHAARPDIQMTQSPSSLSASLGERVSLTCRATQELSGYLSWLQQKPDGTIKRLIYAASTLDSGVPKRFSGNRSGSDYSLTISSLESEDFADYYCLQYAIYPYTFGGGTKLEIKGGGGSGGGGSGGGGSEVQLQQSGPELVKPGASVKMSCKASGYTFTSYFIHWVKQKPGQGLEWIGFINPYNDGSKYNEKFKGKATLTSDKSSSTAYMELSSLTSEDSAVYYCTRDDGYYGYAMDYWGQGTSVTVSSTREQKLISEEDGSGIQNPDPAVYQLRDSKSSDKSVCLFTDFDSQTNVSQSKDSDVYITDKCVLDMRSMDFKSNSAVAWSNKSDFACANAFNNSIIPEDTFFPSSDVPCDVKLVEKSFETDTNLNFQNLSVIGFRILLLKVAGFNLLMTLRLWSSRAKRSGSGVKQTLNFDLLKLAGDVESNPGPSRGHMTEYKPTVRLATRDDVPRAVRTLAAAFADYPATRHTVDPDRHIERVTELQELFLTRVGLDIGKVWVADDGAAVAVWTTPESVEAGAVFAEIGPRMAELSGSRLAAQQQMEGLLAPHRPKEPAWFLATVGVSPDHQGKGLGSAVVLPGVEAAERAGVPAFLETSAPRNLPFYERLGFTVTADVEVPEGPRTWCMTRKPGA	–	–	HL60 (+/−)	–
041816-C01 (protein, Polynucleotide encoding a Synthetic Immune Receptor (SIR)) MALPVTALLLPLALLLHAARPDTIVLTQSPASLAVSLGQRATISCRASESVDSYGNSFMHWYQQKPGQPPKLLIYLASNLESGVPARFSGSGSRTDFTLTIDPVEADDAATYYCQQNNYDPWTFGGGTKLEIKLEGKPIPNPLLGLDSTGSGEDLKNVFPPEVAVFEPSKAEIAHTQKATLVCLATGFYPDHVELSWWVNGKEVHSGVCTDPQPLKEQPALNDSRYCLSSRLRVSATFWQNPRNHFRCQVQFYGLSENDEWTQDRAKPVTQIVSAEAWGRADCGITSASYHQGVLSATILYEILLGKATLYAVLVSALVLMAMVKRKDSRGRAKRSGSGATNFSLLKQAGDVEENPGPTSMDWIWRILFLVGAATGAHSFEEVQLQQSGPELVKPGASVKMSCKASGYTFTSYVMHWVKQKPGQGLEWIGYINPYNDGTKYNEKFKGKATLTSDTSSSTAYMELNSLTSEDSAVYFCARPIYFDNDYFDYWGQGTTLKVSSTREQKLISEEDGSGTPFPSLAPPIMLLVDGKQQMVVVCLVLDVAPPGLDSPIWFSAGNGSALDAFTYGPSPATDGTWTNLAHLSLPSEELASWEPLVCHTGPGAEGHSRSTQPMHLSGEASTARTCPQEPLRGTPGGALWLGVLRLLLFKLLLFDLLLTCSCLCDPAGPLPSPATTTRLRALGSHRLHPATETGGREATSSPRPQPRDRRWGDTPPGRKPGSPVRAKRSGSGVKQTLNFDLLKLAGDVESNPGPSRGHMTEYKPTVRLATRDDVPRAVRTLAAAFADYPATRHTVDPDRHIERVTELQELFLTRVGLDIGKVWVADDGAAVAVWTTPESVEAGAVFAEIGPRMAELSGSRLAAQQQMEGLLAPHRPKEPAWFLATVGVSPDHQGKGLGSAVVLPGVEAAERAGVPAFLETSAPRNLPFYERLGFTVTADVEVPEGPRTWCMTRKPGA	(+/−), L363 (+/−)	(+/−), L363 (+/−)	–	RAJI (+/−), U266
